One molecule from publication PMC8363014, “OsMADS23 phosphorylated by SAPK9 confers drought and salt tolerance by regulating ABA biosynthesis in rice” (PLoS Genetics, 2021) can be followed below.

In this assay the target is T1, His-SAPK9 (rice, UniProt Q75V57 1-361).
T1 construct: SnRK2-type protein kinase SAPK9 from rice; source: E. coli DE3, pET-32a (+), purified
T1 sequence (looked up): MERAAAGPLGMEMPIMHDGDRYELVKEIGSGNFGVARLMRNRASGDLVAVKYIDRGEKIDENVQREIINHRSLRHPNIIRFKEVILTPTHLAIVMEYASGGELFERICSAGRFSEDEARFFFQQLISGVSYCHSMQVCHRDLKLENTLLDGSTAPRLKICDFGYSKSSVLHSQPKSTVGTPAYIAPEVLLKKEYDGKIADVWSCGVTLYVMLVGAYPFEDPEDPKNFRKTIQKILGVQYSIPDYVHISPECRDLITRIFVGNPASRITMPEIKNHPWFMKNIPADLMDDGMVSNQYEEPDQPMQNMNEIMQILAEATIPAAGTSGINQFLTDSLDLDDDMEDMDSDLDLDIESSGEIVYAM
Nature of the assay: pull-down; 0.5 mg GST-OsMADS23 or GST on GST Bind Resin, 4°C, 2 h; then 0.5 mg purified His-SAPK9 for 2 h; three washes; western blot with anti-His. The following applies: both partners purified. In general terms: A western blot detects proteins with antibodies after separation by electrophoresis.

B1: GST-tagged OsMADS23 (natural protein)
chain: not shown
notes: MADS-box transcription factor OsMADS23 from rice; Printed as GST-OsMADS23; also called GST-OsMADS23; source: E. coli BL21 (DE3), pGEX-4T-1, purified
Regarding B1, the binding result is reported as “binds”.
